Measurements: PMC10935766 (2024)
Positions count from the first letter of the chain named. Numbers in names are those of the source. Like-named read-outs stand apart in the source and are kept apart here. Values belong to the molecule of their own block, whether it stands above or below them. Non-standard residues stand in square brackets, D forms with d. No end group written: not given here. pY = N[C@@H](Cc1ccc(OP(=O)(O)O)cc1)C(=O)O

Assays:
[1] = target: E6AP AZUL (Homo sapiens) (UniProt Q05086); settings: cited from earlier work
[2] = target: E6AP AZUL (Homo sapiens) (UniProt Q05086); experiment: ITC; settings: cited from earlier work
[3] = target: E6AP AZUL (Homo sapiens) (UniProt Q05086); experiment: SPR; settings: cited from earlier work
[4] = target: T1, E6AP AZUL 24-87 (Homo sapiens, UniProt Q05086); experiment: ITC
T1 chain: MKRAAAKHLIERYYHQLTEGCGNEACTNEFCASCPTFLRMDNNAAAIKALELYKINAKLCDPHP

[5] = target: T1, E6AP AZUL 24-87; experiment: fluorescence (dual probe)
[6] = target: T1, E6AP AZUL 24-87; experiment: fluorescence
[7] = target: T1, E6AP AZUL 24-87; experiment: fluorescence competition (50 nM S358C-acrylodan, 10 nM AZUL)
[8] = target: T1, E6AP AZUL 24-87; experiment: fluorescence competition (25 nM S358C-acrylodan:AZUL)
[9] = target: T1, E6AP AZUL 24-87; experiment: fluorescence competition (25 nM S337C-Atto610:AZUL)
[10] = target: T1, E6AP AZUL 24-87; experiment: fluorescence competition (100 nM S358C-acrylodan:AZUL)
[11] = target: T1, E6AP AZUL 24-87; experiment: fluorescence competition (10 nM S337C-Atto610:AZUL)

Molecule: Rpn10 322-366 (from UniProt P55036)
Kd [1]: 189 nM

Molecule: Rpn10 RAZUL (from UniProt P55036)
Kd [2]: 8.1 nM | Kd [3]: 11.6 nM

B2: Rpn10 RAZUL S337C-Atto610 305-377 (protein)
chain: SADIDASSAMDTSEPAKEEDDYDVMQDPEFLQSVLENLPGVDPNNEAIRNAMGSLASQATKDGKKDKKEEDKK
modifications: S337C labeled with Atto610
Kd [5]: 16.3 nM

B3: Rpn10 RAZUL S337C-acrylodan 305-377 (protein)
chain: B2 chain
modifications: S337C labeled with acrylodan
Kd [4]: < 35 nM

B4: Rpn10 RAZUL S337C 305-377 (protein)
chain: B2 chain with S33C
Kd [4]: < 30 nM

Second part, the molecule after the results:

Kd [4]: 6.9 nM
B1: Rpn10 RAZUL S361C 305-377 (protein)
chain: B2 chain with S57C

Kd [5]: 2.97 nM | Kd [6]: ~18 nM
B5: Rpn10 RAZUL S358C-acrylodan 305-377 (protein)
chain: B2 chain
modifications: S358C labeled with acrylodan

Kd [4]: < 30 nM
B6: Rpn10 RAZUL S358C 305-377 (protein)
chain: B2 chain with S54C

Ki [7]: 42.6 nM
Molecule: EEDD[pY]DVMQDPEFLQSVLENLPGVDPNNEAIRNAMGSLASQATKD [Rpn10 RAZUL peptide Y326p 322-366]

Ki [8]: 1260 nM | Ki [9]: 780 nM | Ki [7]: 28.5 nM | Ki [10]: 18200 nM | Ki [11]: 664 nM
Molecule: EEDDYDVMQDPEFLQSVLENLPGVDPNNEAIRNAMGSLASQATKD [Rpn10 RAZUL peptide 322-366]
